Two proteins from publication PMC3381609 can be followed below.

Substrate in this data set: O=C1OC2(c3ccc(O[C@@H]4O[C@H](CO)[C@H](O)[C@H](O)[C@H]4O)cc3Oc3cc(O[C@@H]4O[C@H](CO)[C@H](O)[C@H](O)[C@H]4O)ccc32)c2ccccc21
As to the kind of experiment: purified protein. In kind it is biochemical, Saccharolobus solfataricus. As to conditions: no indole, pH 6.5, 37 °C, 50 mM sodium phosphate, 5% DMSO.

B1: β-glycosidase (β-gly) (Saccharolobus solfataricus P2; W33G) (protein)
chain: MYSFPNSFRFGWSQAGFQSEMGTPGSEDPNTDGYKWVHDPENMAAGLVSGDLPENGPGYWGNYKTFHDNAQKMGLKIARLNVEWSRIFPNPLPRPQNFDESKQDVTEVEINENELKRLDEYANKDALNHYREIFKDLKSRGLYFILNMYHWPLPLWLHDPIRVRRGDFTGPSGWLSTRTVYEFARFSAYIAWKFDDLVDEYSTMNEPNVVGGLGYVGVKSGFPPGYLSFELSRRAMYNIIQAHARAYDGIKSVSKKPVGIIYANSSFQPLTDKDMEAVEMAENDNRWWFFDAIIRGEITRGNEKIVRDDLKGRLDWIGVNYYTRTVVKRTEKGYVSLGGYGHGCERNSVSLAGLPTSDFGWEFFPEGLYDVLTKYWNRYHLYMYVTENGIADDADYQRPYYLVSHVYQVHRAINSGADVRGYLHWSLADNYEWASGFSMRFGLLKVDYNTKRLYWRPSALVYREIATNGAITDEIEHLNSVPPVKPLRH
In general, Km refers to the concentration of substrate that gives half-maximal velocity. By kcat is commonly meant the maximal rate divided by the concentration of active sites. With B1, the Km was 1080 ± 30 µM and the kcat turned out to be 0.00675 ± 0.00004 s⁻¹.

B2: β-glycosidase (β-gly) (Saccharolobus solfataricus P2) (protein)
chain: MYSFPNSFRFGWSQAGFQSEMGTPGSEDPNTDWYKWVHDPENMAAGLVSGDLPENGPGYWGNYKTFHDNAQKMGLKIARLNVEWSRIFPNPLPRPQNFDESKQDVTEVEINENELKRLDEYANKDALNHYREIFKDLKSRGLYFILNMYHWPLPLWLHDPIRVRRGDFTGPSGWLSTRTVYEFARFSAYIAWKFDDLVDEYSTMNEPNVVGGLGYVGVKSGFPPGYLSFELSRRAMYNIIQAHARAYDGIKSVSKKPVGIIYANSSFQPLTDKDMEAVEMAENDNRWWFFDAIIRGEITRGNEKIVRDDLKGRLDWIGVNYYTRTVVKRTEKGYVSLGGYGHGCERNSVSLAGLPTSDFGWEFFPEGLYDVLTKYWNRYHLYMYVTENGIADDADYQRPYYLVSHVYQVHRAINSGADVRGYLHWSLADNYEWASGFSMRFGLLKVDYNTKRLYWRPSALVYREIATNGAITDEIEHLNSVPPVKPLRH
With B2, the Km came to 58 ± 4 µM and the kcat was found to be 0.265 ± 0.002 s⁻¹.
